Molecular target: T1, GI.1 norovirus (Norwalk virus) virus-like particles (Norwalk virus (norovirus GI.1), UniProt Q83884 1-530)
T1 construct: major capsid protein VP1 (ORF2) of Norwalk virus, genotype GI.1, assembled into virus-like particles; also called GI.1 VLPs; GI.1 VLP; copies: 180
T1 sequence: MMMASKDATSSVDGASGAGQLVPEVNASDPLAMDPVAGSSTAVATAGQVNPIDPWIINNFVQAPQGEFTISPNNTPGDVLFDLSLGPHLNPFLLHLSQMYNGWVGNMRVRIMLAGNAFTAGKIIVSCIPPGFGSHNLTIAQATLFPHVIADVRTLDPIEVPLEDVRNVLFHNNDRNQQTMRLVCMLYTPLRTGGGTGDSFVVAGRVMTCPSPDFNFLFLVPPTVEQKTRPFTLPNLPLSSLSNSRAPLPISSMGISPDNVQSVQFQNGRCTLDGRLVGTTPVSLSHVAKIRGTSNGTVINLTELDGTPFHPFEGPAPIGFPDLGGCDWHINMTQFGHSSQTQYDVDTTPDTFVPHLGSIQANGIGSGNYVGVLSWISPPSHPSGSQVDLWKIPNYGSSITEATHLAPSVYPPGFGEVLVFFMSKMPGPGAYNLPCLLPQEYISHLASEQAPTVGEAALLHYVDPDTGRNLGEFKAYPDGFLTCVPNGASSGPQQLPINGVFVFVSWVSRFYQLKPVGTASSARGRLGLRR
Experiment: ELISA; phage ELISA: VLPs, P-domain, S-domain (CT303) or BSA coated directly on the plate (VLPs 5 ug/mL in PBS); 5 × 10^10 cfu phage per well in 1% MPBS, 2 h RT; detected with anti-M13 HRP; signal as ratio to M13KE phage
Settings: both partners purified

B1: NV-N-R5-1 phage-displayed 12-mer peptide (peptide)
peptide: LPSWYLAYQKII
notes: source: first reported by Rogers et al [18]
B1: binds.

Source: publication PMC5240998, “Identification and Characterization of Single-Chain Antibodies that Specifically Bind GI Noroviruses” (PLoS ONE, 2017)
